Molecular target: EvdS6 (Micromonospora carbonacea var. aurantiaca)
Experiment: crystal structure; EvdS6 with copurified NAD+, ligand-free and TDP-bound states; hanging drop at about 25 °C; two protein chains in the asymmetric unit

stoichiometry N: 2
Substance: EvdS6 (enzyme)

Source: PMC10338323
